# Molecular target: Mitogen-Activated Protein Kinase-Activated Protein Kinase 2 (human) (UniProt P49137)
# Experiment: cell-based or functional assay
substance,measurement,value
MMI-0100 (peptide),IC50 (radiometric kinase activity assay),22 µM

# Reference: US20160136234A1
